Experimental data taken from patent US20130129746A1 (GlaxoSmithKline, published 2013).
Substitutions are numbered along the chain they refer to.

B1: DOM7h-11-12/DOM1m-21-23 fusion DMS number 5516 (other)
chain: EVQLLESGGGLVQPGGSLRLSCAASGFTFNRYSMGWLRQAPGKGLEWVSRIDSYGRGTYYEDPVKGRFSISRDNSKNTLYLQMNSLRAEDTAVYYCAKISQFGSNAFDYWGQGTQVTVSSASTSGPSDIQMTQSPSSLSASVGDRVTITCRASRPIGTMLSWYQQKPGKAPKLLILFGSRLQSGVPSRFSGSGSGTDFTLTISSLQPEDFATYYCAQAGTHPTTFGQGTKVEIKR
notes: also called DMS5516
B2: DOM7h-11-15/DOM1m-21-23 fusion DMS number 5517 (other)
chain: B1 chain with F177A, G178F
notes: also called DMS5517
B3: DOM7h14-10/TVAAPSC fusion (NCE conjugate) (other)
chain: DIQMTQSPSSLSASVGDRVTITCRASQWIGSQLSWYQQKPGKAPKLLIMWRSSLQSGVPSRFSGSGSGTDFTLTISSLQPEDFATYYCAQGLRHPKTFGQGTKVEIKRTVAAPSC
modifications: C-terminal Cys of the TVAAPSC spacer conjugated by maleimide through a PEG 4 linker to the NCE (small molecule ADAMTS-4 inhibitor)
notes: AlbudAb-drug conjugate; also called DOM7h14-10 NCE-TVAAPSC
B4: DOM7h-11 (other)
VL: DIQMTQSPSSLSASVGDRVTITCRASRPIGTTLSWYQQKPGKAPKLLIWFGSRLQSGVPSRFSGSGSGTDFTLTISSLQPEDFATYYCAQAGTHPTTFGQGTKVEIKR
B5: DOM7h-11-3 (other)
VL: B4 VL with W49L, F50W, G51N
B6: Rat Serum Albumin (other, UniProt P02770 25-608, looked up)
chain: EAHKSEIAHRFKDLGEQHFKGLVLIAFSQYLQKCPYEEHIKLVQEVTDFAKTCVADENAENCDKSIHTLFGDKLCAIPKLRDNYGELADCCAKQEPERNECFLQHKDDNPNLPPFQRPEAEAMCTSFQENPTSFLGHYLHEVARRHPYFYAPELLYYAEKYNEVLTQCCTESDKAACLTPKLDAVKEKALVAAVRQRMKCSSMQRFGERAFKAWAVARMSQRFPNAEFAEITKLATDVTKINKECCHGDLLECADDRAELAKYMCENQATISSKLQACCDKPVLQKSQCLAEIEHDNIPADLPSIAADFVEDKEVCKNYAEAKDVFLGTFLYEYSRRHPDYSVSLLLRLAKKYEATLEKCCAEGDPPACYGTVLAEFQPLVEEPKNLVKTNCELYEKLGEYGFQNAVLVRYTQKAPQVSTPTLVEAARNLGRVGTKCCTLPEAQRLPCVEDYLSAILNRLCVLHEKTPVSEKVTKCCSGSLVERRPCFSALTVDETYVPKEFKAETFTFHSDICTLPDKEKQIKKQTALAELVKHKPKATEDQLKTVMGDFAQFVDKCCKAADKDNCFATEGPNLVARSKEALA
notes: mature; purified protein on CM5 chips for BIAcore; also called RSA; rat SA
B7: DOM7h-14 (other)
VL: DIQMTQSPSSLSASVGDRVTITCRASQWIGSQLSWYQQKPGKAPKLLIMWRSSLQSGVPSRFSGSGSGTDFTLTISSLQPEDFATYYCAQGAALPRTFGQGTKVEIKR
notes: Vk dAb (AlbudAb)

Tests used:
Rat Serum Albumin [1] = biological target: B6; assay: BIAcore SPR, DOM1m-21-23 fusion against unfused AlbudAb
Rat Serum Albumin [2] = biological target: B6; assay: BIAcore SPR (Albumin KD column)
[3] = biological target: T1, Cynomolgus monkey Serum Albumin (Cynomolgus monkey, UniProt A2V9Z4 25-608); assay: Albumin KD column of the PK table (row marked historical data; differs from Table 6); historical data (*), not the Table 6 run
T1 construct: mature; purified protein on CM5 chips for BIAcore; also called CSA; cyno SA

[4] = biological target: T1, Cynomolgus monkey Serum Albumin; assay: BIAcore SPR;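 further: purified dAbs run at 1 µM, 500 nM and 50 nM over human, cynomolgus, mouse and rat serum albumin in BIAcore binding measurements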
Procedure: (§1) Binding to HSA, CSA, MSA and RSA by BIAcore was confirmed using purified protein at 3 concentrations 1 μM, 500 nM and 50 nM.

Rat Serum Albumin [5] = biological target: B6; assay: BIAcore SPR;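 further: purified dAbs run at 1 µM, 500 nM and 50 nM over human, cynomolgus, mouse and rat serum albumin in BIAcore binding measurements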
Procedure: as §1

mouse serum albumin [6] = biological target: T2, mouse serum albumin (mouse, UniProt P07724 25-608); assay: BIAcore SPR;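 further: purified dAbs run at 1 µM, 500 nM and 50 nM over human, cynomolgus, mouse and rat serum albumin in BIAcore binding measurements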
T2 construct: mature; purified protein on CM5 chips for BIAcore; also called MSA; mouse SA
Procedure: as §1

Rat Serum Albumin [7] = biological target: B6; assay: Albumin KD column of the PK table (repeats Table 6)
mouse serum albumin [8] = biological target: T2, mouse serum albumin; assay: as above
[9] = biological target: T1, Cynomolgus monkey Serum Albumin; assay: BIAcore SPR, second independent experiment;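 further: purified domain antibodies run as analytes at 50 nM, 500 nM and 1 µM over HSA, CSA, MSA and RSA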
Procedure: as §1

Rat Serum Albumin [10] = biological target: B6; assay: BIAcore SPR, second independent experiment;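 further: purified domain antibodies run as analytes at 50 nM, 500 nM and 1 µM over HSA, CSA, MSA and RSA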
Procedure: as §1

Human Serum Albumin [11] = biological target: T3, Human Serum Albumin (human, UniProt P02768 25-609); assay: BIAcore SPR, second independent experiment;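 further: purified domain antibodies run as analytes at 50 nM, 500 nM and 1 µM over HSA, CSA, MSA and RSA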
T3 construct: mature; purified protein on CM5 chips for BIAcore; also called HSA; human SA
Procedure: as §1

mouse serum albumin [12] = biological target: T2, mouse serum albumin; assay: BIAcore SPR, second independent experiment;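 further: purified domain antibodies run as analytes at 50 nM, 500 nM and 1 µM over HSA, CSA, MSA and RSA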
Procedure: as §1

Human Serum Albumin [13] = biological target: T3, Human Serum Albumin; assay: BIAcore SPR;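 further: purified dAbs run at 1 µM, 500 nM and 50 nM over human, cynomolgus, mouse and rat serum albumin in BIAcore binding measurements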
Procedure: as §1

Rat Serum Albumin [14] = biological target: B6; assay: BIAcore SPR, second independent experiment; second, independent SPR experiment (bracketed values)
Procedure: as §1

[15] = biological target: T4, DOM7h-11/Exendin-4 fusion DMS number 7142; assay: BIAcore SPR (Albumin KD column)
T4 construct: exendin-4, (G4S)3 linker, AlbudAb; also called DMS7142

[16] = biological target: T5, DOM7h-14-10/Exendin-4 fusion DMS number 7139; assay: BIAcore SPR (Albumin KD column)
T5 construct: exendin-4, (G4S)3 linker, AlbudAb; also called DMS7139

[17] = biological target: T6, DOM7h-14/Exendin-4 fusion DMS number 7138; assay: BIAcore SPR (Albumin KD column)
T6 construct: exendin-4, (G4S)3 linker, AlbudAb; also called DMS7138

[18] = biological target: T7, DOM7h-11-15/Exendin-4 fusion DMS number 7143; assay: BIAcore SPR (Albumin KD column)
T7 construct: exendin-4, (G4S)3 linker, AlbudAb; also called DMS7143

[19] = biological target: T8, DOM7h-14-19/Exendin-4 fusion DMS number 7141; assay: BIAcore SPR (Albumin KD column)
T8 construct: exendin-4, (G4S)3 linker, AlbudAb; also called DMS7141

[20] = biological target: T9, DOM7h-11-12/Exendin-4 fusion DMS number 7147; assay: BIAcore SPR (Albumin KD column)
T9 construct: exendin-4, (G4S)3 linker, AlbudAb; also called DMS7147

[21] = biological target: T10, DOM7h-14-18/Exendin-4 fusion DMS number 7140; assay: BIAcore SPR (Albumin KD column)
T10 construct: exendin-4, (G4S)3 linker, AlbudAb; also called DMS7140

Rat Serum Albumin [22] = biological target: B6; assay: Albumin KD column of the PK table (repeats Table 6; row marked historical data); Albumin KD column of PK Table 10; historical data
[23] = biological target: T1, Cynomolgus monkey Serum Albumin; assay: Albumin KD column of the PK table (repeats Table 6; row marked historical data)

T2 sequence (P07724 25-608): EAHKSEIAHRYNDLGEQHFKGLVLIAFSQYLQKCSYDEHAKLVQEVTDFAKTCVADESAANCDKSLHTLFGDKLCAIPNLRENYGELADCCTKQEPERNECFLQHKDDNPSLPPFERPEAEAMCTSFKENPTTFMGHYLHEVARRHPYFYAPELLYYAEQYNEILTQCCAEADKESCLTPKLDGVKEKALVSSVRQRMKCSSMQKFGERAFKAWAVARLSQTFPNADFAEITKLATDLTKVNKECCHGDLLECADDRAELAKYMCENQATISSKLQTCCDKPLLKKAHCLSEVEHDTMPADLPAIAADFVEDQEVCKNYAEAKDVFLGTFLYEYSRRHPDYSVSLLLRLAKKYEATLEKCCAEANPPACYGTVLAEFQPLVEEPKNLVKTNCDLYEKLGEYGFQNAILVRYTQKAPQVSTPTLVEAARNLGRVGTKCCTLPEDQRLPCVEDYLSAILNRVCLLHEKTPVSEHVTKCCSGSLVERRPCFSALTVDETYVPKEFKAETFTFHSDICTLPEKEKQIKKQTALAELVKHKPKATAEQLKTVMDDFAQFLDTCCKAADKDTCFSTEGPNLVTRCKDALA
T1 sequence (A2V9Z4 25-608): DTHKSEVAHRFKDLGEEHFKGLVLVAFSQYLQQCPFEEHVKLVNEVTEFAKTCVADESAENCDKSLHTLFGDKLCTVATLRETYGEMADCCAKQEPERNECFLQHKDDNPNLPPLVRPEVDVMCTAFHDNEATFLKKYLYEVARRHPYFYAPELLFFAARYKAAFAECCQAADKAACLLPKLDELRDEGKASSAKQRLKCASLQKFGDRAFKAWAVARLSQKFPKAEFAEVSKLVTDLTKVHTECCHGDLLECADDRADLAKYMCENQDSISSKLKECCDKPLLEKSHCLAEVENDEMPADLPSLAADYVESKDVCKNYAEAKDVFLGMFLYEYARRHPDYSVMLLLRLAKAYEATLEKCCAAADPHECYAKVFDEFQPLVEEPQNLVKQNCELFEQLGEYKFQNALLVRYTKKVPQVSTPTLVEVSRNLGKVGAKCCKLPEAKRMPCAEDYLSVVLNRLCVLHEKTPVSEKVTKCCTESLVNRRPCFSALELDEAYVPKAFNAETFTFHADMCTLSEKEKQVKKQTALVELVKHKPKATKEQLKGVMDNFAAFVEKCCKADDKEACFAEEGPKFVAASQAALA

B1 was tested, and the “fold decrease in affinity to RSA compared to the unfused AlbudAb” value (Rat Serum Albumin [1]) was 2 fold.

With B2 the “fold decrease in affinity to RSA compared to the unfused AlbudAb” value (Rat Serum Albumin [1]) was 2 fold.

Binder B3 has a Kd (Rat Serum Albumin [2]) of 0.035 µM.

B4 gave a Kd [3] of 3.3 µM, a Kd [4] of 1 µM and a koff [4] of 0.682 s⁻¹. It also gave a kon [4] of 800000 M⁻¹ s⁻¹, a Kd (Rat Serum Albumin [5]) of 2.1 µM and a koff (Rat Serum Albumin [5]) of 0.1 s⁻¹. For the same binder, the kon (Rat Serum Albumin [5]) was 48000 M⁻¹ s⁻¹, the Kd (mouse serum albumin [6]) was 5 µM and the koff (mouse serum albumin [6]) was 0.9 s⁻¹. It also gave a Kd (Rat Serum Albumin [7]) of 2.1 µM and a Kd (mouse serum albumin [8]) of 5 µM.

Work on B5 yielded a Kd [9] of 0.2 µM, a koff [9] of 0.15 s⁻¹ and a kon [9] of 726000 M⁻¹ s⁻¹. The Kd (Rat Serum Albumin [10]) was 88 µM, the kon (Rat Serum Albumin [10]) was 8110 M⁻¹ s⁻¹ and the Kd (Human Serum Albumin [11]) was 0.13 µM. For the same binder, the koff (Human Serum Albumin [11]) was 0.0235 s⁻¹, the kon (Human Serum Albumin [11]) was 186000 M⁻¹ s⁻¹ and the Kd (mouse serum albumin [12]) was 36 µM. The koff (mouse serum albumin [12]) was 0.612 s⁻¹, the kon (mouse serum albumin [12]) was 16700 M⁻¹ s⁻¹ and the Kd [4] was 0.67 µM. It also gave a koff [4] of 0.096 s⁻¹, a kon [4] of 290000 M⁻¹ s⁻¹ and a Kd (Rat Serum Albumin [5]) of 10 µM. It also gave a Kd (Human Serum Albumin [13]) of 0.032 µM, a koff (Human Serum Albumin [13]) of 0.016 s⁻¹ and a kon (Human Serum Albumin [13]) of 650000 M⁻¹ s⁻¹. For the same binder, the Kd (mouse serum albumin [6]) was at least 10 µM and the koff (Rat Serum Albumin [14]) was 0.718 s⁻¹.

In the case of B6, the Kd [15] is reported as 24 µM, the Kd [16] is reported as 0.019 µM and the Kd [17] is reported as 2.4 µM. It also gave a Kd [18] of 0.13 µM, a Kd [19] of 17 µM and a Kd [20] of 1.4 µM. For the same binder, the Kd [21] was 16 µM.

B7 was tested, and the Kd (Rat Serum Albumin [22]) was 0.06 µM, the Kd [23] was 0.066 µM and the Kd [4] was 0.066 µM. It also gave a koff [4] of 0.0965 s⁻¹, a kon [4] of 1.5e+06 M⁻¹ s⁻¹ and a Kd (Rat Serum Albumin [5]) of 0.06 µM. The koff (Rat Serum Albumin [5]) was 0.209 s⁻¹, the kon (Rat Serum Albumin [5]) was 4e+06 M⁻¹ s⁻¹ and the Kd (Human Serum Albumin [13]) was 0.033 µM. For the same binder, the koff (Human Serum Albumin [13]) was 0.0417 s⁻¹, the kon (Human Serum Albumin [13]) was 1.43e+06 M⁻¹ s⁻¹ and the Kd (mouse serum albumin [6]) was 0.012 µM. It also gave a koff (mouse serum albumin [6]) of 0.0482 s⁻¹ and a kon (mouse serum albumin [6]) of 4.1e+06 M⁻¹ s⁻¹.
